Experimental data reported in publication PMC5389570.
Read-outs that look alike come from different tables or passages of the source.

Tests used:
[1] = target: T1, RPA heterotrimer (RPA70/RPA32/RPA14) (Homo sapiens, UniProt P27694;P15927;P35244 1-616;1-270;1-121); assay: SPR
[2] = target: T1, RPA heterotrimer (RPA70/RPA32/RPA14); assay: SPR; remark: listed apart in the source
[3] = target: T1, RPA heterotrimer (RPA70/RPA32/RPA14); assay: EMSA
Cdc45 = target: T2, Cdc45 (Homo sapiens, UniProt O75419 1-566); assay: EMSA
T2 sequence: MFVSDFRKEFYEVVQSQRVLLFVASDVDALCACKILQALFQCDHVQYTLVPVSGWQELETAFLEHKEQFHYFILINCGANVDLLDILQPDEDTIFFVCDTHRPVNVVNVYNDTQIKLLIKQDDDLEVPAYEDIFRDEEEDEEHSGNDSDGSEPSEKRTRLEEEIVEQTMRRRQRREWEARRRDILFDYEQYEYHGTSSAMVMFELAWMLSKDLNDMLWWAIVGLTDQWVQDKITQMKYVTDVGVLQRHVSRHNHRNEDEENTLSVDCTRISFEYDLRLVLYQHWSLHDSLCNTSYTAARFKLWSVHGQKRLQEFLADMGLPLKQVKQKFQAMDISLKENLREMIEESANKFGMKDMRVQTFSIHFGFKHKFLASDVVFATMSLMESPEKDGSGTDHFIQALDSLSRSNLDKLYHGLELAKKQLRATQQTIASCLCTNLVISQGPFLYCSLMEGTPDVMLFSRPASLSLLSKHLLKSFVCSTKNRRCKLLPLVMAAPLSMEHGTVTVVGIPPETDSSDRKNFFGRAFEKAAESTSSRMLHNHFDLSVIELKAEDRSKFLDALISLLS

SSB = SSB (Escherichia coli, UniProt P0AGE0 1-178); assay: EMSA
[4] = target: T1, RPA heterotrimer (RPA70/RPA32/RPA14); assay: EMSA; remark: listed apart in the source

T1 sequence (P27694 whole entry, chain 1 of 3): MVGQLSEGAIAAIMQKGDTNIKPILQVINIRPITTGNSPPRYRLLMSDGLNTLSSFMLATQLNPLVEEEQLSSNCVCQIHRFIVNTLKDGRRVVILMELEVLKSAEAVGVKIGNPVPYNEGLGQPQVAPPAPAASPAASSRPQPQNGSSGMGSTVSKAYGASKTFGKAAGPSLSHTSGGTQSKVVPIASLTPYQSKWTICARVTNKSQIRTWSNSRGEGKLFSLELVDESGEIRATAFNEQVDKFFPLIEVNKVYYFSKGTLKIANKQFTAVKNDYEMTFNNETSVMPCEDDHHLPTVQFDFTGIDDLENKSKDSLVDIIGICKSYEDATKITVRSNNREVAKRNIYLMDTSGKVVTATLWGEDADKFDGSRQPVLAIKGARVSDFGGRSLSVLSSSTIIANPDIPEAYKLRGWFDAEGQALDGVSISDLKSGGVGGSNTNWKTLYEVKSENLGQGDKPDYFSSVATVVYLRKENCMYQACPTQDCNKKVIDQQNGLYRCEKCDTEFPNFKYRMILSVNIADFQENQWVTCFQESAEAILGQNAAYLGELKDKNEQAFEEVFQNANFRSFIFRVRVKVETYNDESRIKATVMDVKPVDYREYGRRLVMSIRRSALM
T1 sequence (P15927 whole entry, chain 2 of 3): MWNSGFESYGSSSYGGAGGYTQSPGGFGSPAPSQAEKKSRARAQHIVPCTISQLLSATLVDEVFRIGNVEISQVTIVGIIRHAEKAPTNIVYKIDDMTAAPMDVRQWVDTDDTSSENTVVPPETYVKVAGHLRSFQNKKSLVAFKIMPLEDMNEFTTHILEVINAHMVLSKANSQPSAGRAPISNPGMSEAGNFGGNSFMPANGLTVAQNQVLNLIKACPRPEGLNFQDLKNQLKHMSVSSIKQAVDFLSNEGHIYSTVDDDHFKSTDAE
T1 sequence (P35244 whole entry, chain 3 of 3): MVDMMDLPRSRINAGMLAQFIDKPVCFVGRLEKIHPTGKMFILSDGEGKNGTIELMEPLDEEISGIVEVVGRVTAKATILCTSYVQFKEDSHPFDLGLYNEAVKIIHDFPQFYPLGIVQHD
Sequence of SSB (P0AGE0 whole entry): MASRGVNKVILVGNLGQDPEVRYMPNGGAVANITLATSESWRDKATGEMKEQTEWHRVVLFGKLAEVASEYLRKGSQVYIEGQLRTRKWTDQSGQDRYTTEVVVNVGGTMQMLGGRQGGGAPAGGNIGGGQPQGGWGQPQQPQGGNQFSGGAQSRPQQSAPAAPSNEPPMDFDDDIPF

B1: M10-biotin (10-mer) (ssDNA)
DNA: GGCTGGCATG
Kd [1]: 112 ± 14 nM | Kd [2]: 44.1 ± 4.7 nM

B2: M5 (67-mer; called 65-mer in text) (ssDNA)
DNA: GTACCCGGGGATCCTCTAGAGTCGACCTGCAGGCATGCAAGCTTGGCACTGGCCGTCGTTTTACAAC
binding signal [3]: ~4 fold vs RPA alone

B3: M2 (34-mer) (ssDNA)
DNA: GCTTGCATGCCTGCAGGCCAGCCTCAATCTCATC
binding result (Cdc45): no binding | binding result (SSB): binds | binding signal [4]: > 5 fold vs RPA alone

B4: M2-biotin (34-mer) (ssDNA)
DNA: B3 DNA
Kd [2]: 1.53 ± 1.3 nM
